Reference: the supplement of paper PMC10126150
± gives the standard deviation of the averaged measurements.

Test system: ATP
Assay: switch fluorescence ratio, 500 uM ATP over buffer (Cy3 cluster intensity, sum of 5 cycles each) (fold (ratio)); higher = stronger signal-on switching upon ATP binding; sequences stand for … in TCGTCGGCAGCGTCAGATGTGTATAAGAGACAGTTTTTTTTTTTTTTTTTTTTTTTTT…TC
Details: aptamer strand: ATP DNA aptamer (quencher-CACCTGGGGGAGTATTGCGGAGGAAGG + anchor), 100 nM annealed; ATP concentration: 500 uM
Summary of the method: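 After annealing to 100 nM quencher-labelled ATP aptamer, Cy3-labelled switching-strand clusters on a modified Illumina MiSeq flow-cell were imaged in selection buffer. A second image followed after 15 min with 500 uM ATP at 22 °C, and five such buffer/ATP cycles were done, each separated by NaOH stripping and re-annealing. The fluorescence ratio, averaged per switch-domain sequence, is summed target-cycle over summed buffer-cycle Cy3 intensity per cluster, with clusters outside 100-1000 RFU excluded.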
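Further: ATP exposure 15 min at 22 °C before imaging.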

Row | Sequence | switch fluorescence ratio
1 | TTGTTTTCTT | 1 ± 0.045
2 | TCCCCTTTTT | 1.04 ± 0.015
3 | TAAATGGCGT | 1.01 ± 0.033
4 | TAAGAATTTG | 1.22 ± 0.34
5 | GACAGGTGAA | 2.27 ± 0.041
6 | CGGGGGCAGG | 1.03 ± 0.07
7 | AACGGGGAAG | 0.995 ± 0.022
8 | TCAAGTTAAG | 0.9772 ± 0.0014
9 | ATGATTTATT | 1 ± 0.011
10 | ATTATGCCTG | 1.06 ± 0.044
11 | ATAGGTGGCG | 1.01 ± 0.038
12 | AAGTACTTTA | 1.14 ± 0.013
13 | CTATGCAATT | 3.33 ± 0.29
14 | CTTCTGGTCG | 1.01 ± 0.04
15 | TAATTGCGGG | 0.9554 ± 0.0095
16 | TGGGAGAGCG | 0.973 ± 0.016
17 | TTTGCCCCCT | 1.04 ± 0.051
18 | GTTTCTATGG | 0.9961 ± 0.0085
19 | AGGGGTGGGG | 1 ± 0.029
20 | TCTTATGCTC | 0.98 ± 0.022
21 | CGGGAAGGTA | 0.981 ± 0.016
22 | GTTTGTATTA | 0.996 ± 0.011
23 | TTACGGAAT | 1.1 ± 0.14

Row | Sequence | switch fluorescence ratio
24 | ATGGTTCACT | 1.023 ± 0.0032
25 | TACGGGTGCT | 1.16 ± 0.16
26 | CGTGGGGGAG | 1.02 ± 0.066
27 | ATACGGATGC | 1.06 ± 0.025
28 | GGTAAAGGAT | 0.991 ± 0.039
29 | TTGATAAAAG | 1.03 ± 0.08
30 | TTGCTTTTGG | 1.04 ± 0.11
31 | TCACGAGTTT | 1.014 ± 0.0038
32 | CAGTAATTGT | 0.9856 ± 0.0029
33 | TGGGTATATA | 1.03 ± 0.016
34 | TGCTAGGAG | 0.995 ± 0.043
35 | AGATGTAGGC | 1.03 ± 0.038
36 | GGGCTTCGTT | 0.9929 ± 0.0074
37 | TTTTTCCATT | 1.01 ± 0.027
38 | AAGGTGCTGC | 1.035 ± 0.0022
39 | CGAATGAGGT | 0.99 ± 0.04
40 | CGTACATGAT | 1.02 ± 0.022
41 | TTACTGGGGC | 1.03 ± 0.03
42 | TGGGGTACGA | 1.01 ± 0.026
43 | ACATAGCTTG | 1.03 ± 0.011
44 | GGTGAAGGGG | 1.15 ± 0.27
45 | CCTGGCAAGT | 1.87 ± 0.078
46 | TTGCGTTTTT | 1 ± 0.024

Row | Sequence | switch fluorescence ratio
47 | GAGTGAGTGG | 1.019 ± 0.0056
48 | TGGAGGTTAG | 1.02 ± 0.034
49 | CCAGGGGAGG | 1.11 ± 0.071
50 | GGTGGAGCCC | 0.962 ± 0.04
51 | TTCGGTTAGC | 1.05 ± 0.041
52 | AGTTTGGGAA | 1 ± 0.018
53 | ACTTGTTTGC | 1.03 ± 0.035
54 | TTGGGCTTTC | 1.04 ± 0.03
55 | CAATATGACT | 0.991 ± 0.092
56 | AATGCGAGAA | 0.973 ± 0.024
57 | TAGCAAAGAA | 1.03 ± 0.03
58 | TTTATACTTT | 1.06 ± 0.1
59 | TTTAGGCAAA | 1.05 ± 0.12
60 | ACTATGGTAA | 0.9704 ± 0.008
61 | TTGTTTGAAA | 1 ± 0.064
62 | TTCCCACTAC | 2.63 ± 0.086
63 | TTGCCATCCT | 0.98 ± 0.042
64 | GACCCGGCTA | 1.04 ± 0.018
65 | GAATGGGATG | 1.002 ± 0.0023
66 | GGGGTATGGC | 1.03 ± 0.023
67 | AAACAGGTTG | 1.05 ± 0.019
68 | GAGGTTGGGC | 0.993 ± 0.03
69 | GCACGAGCCC | 1.316 ± 0.008

Row | Sequence | switch fluorescence ratio
70 | GGTTGGATTT | 0.978 ± 0.017
71 | ACCTATTCGT | 1.054 ± 0.0047
72 | TATTTTTTTC | 1 ± 0.018
73 | GTTTTTCCTG | 0.981 ± 0.055
74 | TCATCATTTT | 0.996 ± 0.0019
75 | AAAAAAATCG | 1.01 ± 0.028
76 | ATACCTGAGT | 1.21 ± 0.034
77 | GTTATCACTG | 1.02 ± 0.014
78 | TGCATGTTTG | 0.975 ± 0.056
79 | GATAGCTTTT | 1.05 ± 0.082
80 | AGGTGGGTTT | 0.988 ± 0.044
81 | AATAAAATCG | 1.04 ± 0.01
82 | GACCTTTATA | 0.9914 ± 0.0062
83 | ATAAGATTTT | 1.01 ± 0.048
84 | TTTGAGTCGG | 0.957 ± 0.0034
85 | ATGGGGTGGT | 0.993 ± 0.025
86 | AATATGGGTG | 1.08 ± 0.01
87 | GGCATAAGTA | 1.008 ± 0.0054
88 | ATATAGAGGG | 0.9958 ± 0.0031
89 | ATACCAGGTT | 1.18 ± 0.063
90 | AACATTATGT | 1 ± 0.04
91 | GTTTTTCTTC | 0.9923 ± 0.0058
92 | GGACCCGCCG | 1.025 ± 0.0016

Row | Sequence | switch fluorescence ratio
93 | AGGCACGTGT | 1.02 ± 0.015
94 | GGAGTCCAGG | 1.15 ± 0.032
95 | TTTGCCGGGT | 0.998 ± 0.046
96 | GAGAAAAGTG | 1.03 ± 0.086
97 | GAAGAGTCGT | 0.992 ± 0.064
98 | CAATGTCGTT | 0.985 ± 0.047
99 | TGAGGTAGGA | 0.9781 ± 0.0014
100 | ATATCGTATT | 1 ± 0.013
101 | ACTATTTTTG | 0.9745 ± 0.0067
102 | TTTGTTTGGA | 1.01 ± 0.046
103 | AAATGCTTAT | 1.04 ± 0.022
104 | TTTACTGCTT | 0.981 ± 0.044
105 | TTTGGAGGTG | 1.04 ± 0.024
106 | AGAGGCGCGT | 0.946 ± 0.036
107 | GCATGTGGGT | 0.986 ± 0.017
108 | CGATCTTGTG | 0.988 ± 0.01
109 | AATGGTGGGT | 1.01 ± 0.036
110 | AGAAGAGTGT | 1.03 ± 0.038
111 | AGTTGCTTGG | 1.01 ± 0.041
112 | CTGGTTTAGT | 0.978 ± 0.016
113 | GGGATTTTCG | 0.98 ± 0.023
114 | GAAGGGAATG | 1.01 ± 0.017
115 | GGTTATTTTG | 1.01 ± 0.015

Row | Sequence | switch fluorescence ratio
116 | AGATGGATAA | 0.99 ± 0.015
117 | TATAATCATT | 0.985 ± 0.028
118 | GGAGGGGGGA | 1.09 ± 0.24
119 | CTGGCATTTC | 1.37 ± 0.047
120 | TTTTGGATGC | 1.05 ± 0.045
121 | CTAGGATGTG | 0.997 ± 0.031
122 | AGGCCTGAGC | 1 ± 0.025
123 | ATTCTTTGGC | 1.04 ± 0.097
124 | AAGTAGGCAC | 1.022 ± 0.0018
125 | TTTAGGCCCA | 1.03 ± 0.041
126 | TCTTGTTTTT | 0.977 ± 0.022
127 | TTCAGTATCA | 1.06 ± 0.061
128 | ATATTGAGCT | 0.976 ± 0.022
129 | GTTAATTTGC | 0.984 ± 0.04
130 | AGGCCGTAGG | 0.937 ± 0.048
131 | ATGGAGGTTG | 1.03 ± 0.022
132 | AGGTCCGGGT | 0.9981 ± 0.0065
133 | TTTATTGGCT | 1 ± 0.051
134 | TTAATGCTGG | 1 ± 0.033
135 | CCAATTTGTG | 1 ± 0.028
136 | GCGCATTGGT | 1.06 ± 0.068
137 | TAATTAATAT | 1 ± 0.048
138 | ATGGGATCTG | 0.999 ± 0.025

Row | Sequence | switch fluorescence ratio
139 | CAGAGAGCGT | 1.008 ± 0.0068
140 | GAAACAGTGT | 0.9732 ± 0.0046
141 | AGAAAAAGGG | 1.01 ± 0.037
142 | GGAGGGTGTC | 0.988 ± 0.044
143 | TTAAAAGCGT | 1.02 ± 0.013
144 | CCGGTATTGA | 0.994 ± 0.017
145 | GGCTCATTAT | 0.9719 ± 0.0034
146 | CCGGCGCGTG | 1.06 ± 0.1
147 | ACACAGGGTC | 1.07 ± 0.011
148 | AGTGTCGTGC | 1 ± 0.025
149 | AAGCTGGTG | 1.09 ± 0.042
150 | TGGGAGAAGG | 1.02 ± 0.057
151 | CGACTCATAT | 1.52 ± 0.11
152 | TATGGCCAGT | 1.03 ± 0.033
153 | CATGGTACGC | 1.055 ± 0.0043
154 | GGTAGTACTG | 0.995 ± 0.095
155 | ACTTGGAGGG | 1.01 ± 0.011
156 | AGTTTCGCTC | 0.987 ± 0.063
157 | GGAGTTAGGC | 1 ± 0.04
